# Laboratory results taken from patent publication US20250154240A1, “ANTI-HUMAN CXCL1 ANTIBODY” (CHIOME BIOSCIENCE INC., priority 2022, published 2025).
# T1: HuCXCL2 (Homo sapiens, UniProt P19875)
# T1 construct: purchased PROTEINTECH
# T1 sequence (P19875 35-107): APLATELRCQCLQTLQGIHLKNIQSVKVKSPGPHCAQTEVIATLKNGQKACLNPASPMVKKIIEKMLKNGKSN
# T2: HuCXCL3 (Homo sapiens, UniProt P19876)
# T2 construct: purchased PROTEINTECH
# T2 sequence (P19876 35-107): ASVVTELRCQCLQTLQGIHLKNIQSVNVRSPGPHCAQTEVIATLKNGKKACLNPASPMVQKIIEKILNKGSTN
# T3: HuCXCL5 (Homo sapiens, UniProt P42830)
# T3 sequence (P42830 37-114): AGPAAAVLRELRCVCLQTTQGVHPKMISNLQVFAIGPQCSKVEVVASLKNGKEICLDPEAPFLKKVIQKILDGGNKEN
# T4: MsCXCL1 (Mus musculus, UniProt P12850)
# T4 sequence (P12850 25-96): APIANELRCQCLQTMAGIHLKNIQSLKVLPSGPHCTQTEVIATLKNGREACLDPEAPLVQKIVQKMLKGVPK
# B1: Hu5A-5E11: humanized antibody VH1/VL1; VH SEQ ID NO: 76, VL SEQ ID NO: 78 (antibody, V domains shown)
# VH: QVQLVQSGAEVKKPGSSVKVSCKASGYAFSDYWMNWVRQAPGQGLEWIGQIYPGSGDTNYNAKFKGKGTITADKSTSTAYMELSSLRSEDTAVYYCARERDYDVAMDYWGQGTTVTVSS
# VL: DIQMTQSPSSLSASVGDRVTITCKASQDINKYIAWFQQKPGKAPKLVIHYTSILQPGVPSRFSGSGSGTDYTFTISSLQPEDIATYYCLQYDNLPWTFGGGTKVEIK
# Legend:
# CXCR2-expressing cells = assay: In vivo CXCR2-expressing cell migration inhibitory activity, treatment model with OCUM-12 orthotopic transplantation; set-up: species or system mouse
# Description: The stomachs after measurement were excised and fixed overnight at room temperature with a 10% neutral buffered formalin solution (Wako Pure Chemical Industries, Ltd., Japan), followed by replacement with PBS. Then, paraffin embedding and section preparation were outsourced to Applied Medical Research Laboratory, Japan. The prepared gastric tumor sections were immunohistologically stained with an anti-CXCR2 antibody to evaluate in vivo CXCR2 cell migration inhibitory activity. The sections were deparaffinized and rehydrated, and then treated to inactivate endogenous peroxidase. After antigen activation treatment, the sections were blocked with PBS containing 2% skimmed milk and 0.1% Tween-20 (hereinafter referred to as the blocking solution), and reacted overnight at 4° C. with an anti-CXCR2 antibody (Biorbyt) as a primary antibody, which had been diluted 1667-fold with the blocking solution. After washing with PBS containing 0.1% Tween-20, the sections were reacted at room temperature for 1 hour with an HRP-labeled goat anti-rabbit IgG antibody (Abcam) as a secondary antibody. […]
# The dose-response relationship between antibody dose and in vivo antitumor activity or CXCR2 migration inhibitory activity was evaluated in a xenograft treatment model with OCUM-12 orthotopic transplantation. […] After 4 weeks had passed from the transplantation, the mice were sacrificed and evaluated.
# HuCXCL2 = biological target: T1, HuCXCL2; assay: ELISA, inhibition of binding of HuCXCL2 to GAG (heparin, heparan sulfate); format: biochemical; details: antibody 0 to 10 μg/mL; biotin-labeled heparin or heparan sulfate 10 μg/mL
# Description: (§1) Thus, the effect of Hu5A-5E11 on the binding of CXCLs to GAG was evaluated by ELISA assay using plates on which the antigen (HuCXCL1 protein) used for immunization or HuCXCL2, 3 and 5 and MsCXCL1 and 2 proteins had been directly immobilized. CXCLs other than HuCXCL1 were purchased from PROTEINTECH and used. Biotin-labeled heparan sulfate and heparin were purchased from PG Research and used.
# (§2) To 96-well plates, phosphate-buffered saline (PBS) containing 3 μg/mL of HuCXCL1, 2, 3 or 5 or MsCXCL1 or 10 μg/mL of MsCXCL2 was added in a volume of 50 μL per well, and the plates were allowed to stand overnight at 4° C. After removal of the antigen solutions, PBS containing 0.05% Tween-20 (hereinafter referred to as the blocking solution) was added to each well for blocking reaction, and the plates were allowed to stand at room temperature for 30 minutes. […] TMB (Dako) was added as a chromogenic substrate solution to cause color development, and 1 N sulfuric acid was added to stop the reaction, followed by measurement of absorbance at 450 nm. The binding rate of CXCLs to GAG was calculated as a ratio relative to the absorbance measured in the absence of the antibody, which was set to 100%.
# HuCXCL3 = biological target: T2, HuCXCL3; assay: FACS, inhibition of binding of APC-labeled HuCXCL3 to HEK293 cells forced to express HuCXCR2; format: cell-based; details: APC-labeled ligand 10 μg/mL; HEK293 cells expressing HuCXCR2
# Description: (§3) Chemokines are stabilized by directly binding to GAG on the cell surface and thereby allow efficient signal transduction to their receptors. […] Then, to evaluate whether Hu5A-5E11 inhibits the binding of CXCLs to cells, the binding of fluorescently labeled CXCLs to cells was measured as fluorescence intensity by flow cytometry in FACS. For this purpose, HEK293 cells forced to express HuCXCR2 were used. For use as HuCXCL1, 2, 3 and 5 and MsCXCL1, the proteins in above were labeled with APC.
# (§4) The cultured cells were detached and washed with PBS, and then suspended at 5.0× 10^5 cells/mL in PBS containing 1% BSA (hereinafter referred to as the FACS buffer). Each of the APC-labeled ligands and Hu5A-5E11 were mixed at final concentrations of 10 μg/mL and 16.7 μg/mL, respectively, and reacted at room temperature for 30 minutes, and then added to the cell suspension and reacted on ice for 30 minutes. After washing with the FACS buffer, the cells were suspended again in PBS containing 1% 7-AAD, 0.5% BSA and 2 mM EDTA, followed by the above flow cytometry to measure fluorescence intensity.
# HuCXCL5 [1] = biological target: T3, HuCXCL5; assay: ELISA, inhibition of binding of HuCXCL5 to GAG (heparin, heparan sulfate); format: biochemical; set-up: purchased PROTEINTECH; details: antibody 0 to 10 μg/mL; biotin-labeled heparin or heparan sulfate 10 μg/mL
# Description: as §1, §2
# MsCXCL1 = biological target: T4, MsCXCL1; assay: ELISA, inhibition of binding of MsCXCL1 to GAG (heparin, heparan sulfate); format: biochemical; set-up: purchased PROTEINTECH; details: antibody 0 to 10 μg/mL; biotin-labeled heparin or heparan sulfate 10 μg/mL
# Description: as §1, §2
# HuCXCL5 [2] = biological target: T3, HuCXCL5; assay: FACS, inhibition of binding of APC-labeled HuCXCL5 to HEK293 cells forced to express HuCXCR2; format: cell-based; set-up: purchased PROTEINTECH; host or cells: CXCR2: transfected HEK293 cells; details: APC-labeled ligand 10 μg/mL; HEK293 cells expressing HuCXCR2
# Description: as §3, §4
molecule,measurement,setting,value
B1,Dose at which the migration suppressive effect tended to reach a plateau,CXCR2-expressing cells,≥ 60 μg/head
same,Inhibitory activity against the binding of HuCXCL2 to GAG,HuCXCL2,"inhibit the binding of HuCXCL1, 2, 3 and 5 and MsCXCL1 to GAG in an antibody concentration-dependent manner"
same,Inhibitory activity against the binding of HuCXCL3 to cells (fluorescence intensity),HuCXCL3,reduce the fluorescence intensity of the cells in an antibody concentration-dependent manner
same,Inhibitory activity against the binding of HuCXCL5 to GAG,HuCXCL5 [1],"inhibit the binding of HuCXCL1, 2, 3 and 5 and MsCXCL1 to GAG in an antibody concentration-dependent manner"
same,Inhibitory activity against the binding of MsCXCL1 to GAG,MsCXCL1,"inhibit the binding of HuCXCL1, 2, 3 and 5 and MsCXCL1 to GAG in an antibody concentration-dependent manner"
same,Inhibitory activity against the binding of HuCXCL5 to cells (fluorescence intensity),HuCXCL5 [2],reduce the fluorescence intensity of the cells in an antibody concentration-dependent manner
